Source: paper PMC3378324 (Febs Letters, 2012)

Key:
[1] = target: T1, Human Alix recombinant construct ALIX(V+PRR), residues 362-760 (human, UniProt Q8WUM4 362-760); assay: NMR titration
T1 sequence (looked up): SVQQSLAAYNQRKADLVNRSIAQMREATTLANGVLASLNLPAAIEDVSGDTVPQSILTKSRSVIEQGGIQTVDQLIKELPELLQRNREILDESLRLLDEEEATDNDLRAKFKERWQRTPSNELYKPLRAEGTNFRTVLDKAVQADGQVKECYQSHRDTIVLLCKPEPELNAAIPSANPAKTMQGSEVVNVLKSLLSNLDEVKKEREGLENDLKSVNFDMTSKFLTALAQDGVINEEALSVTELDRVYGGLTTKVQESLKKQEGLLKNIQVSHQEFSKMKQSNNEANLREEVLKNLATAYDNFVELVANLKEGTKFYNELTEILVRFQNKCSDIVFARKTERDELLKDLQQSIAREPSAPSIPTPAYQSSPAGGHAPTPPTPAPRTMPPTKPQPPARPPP

[2] = target: T1, Human Alix recombinant construct …; assay: pull-down

Binder	binding result [1]	binding result [2]
Fyn(R96I)-SH3, 6xHis C-terminal fusion (domain or fragment) not shown	binds	
Hck-SH3-GST (domain or fragment) not shown		binds
Fyn(R96I)-SH3-GST (domain or fragment) not shown		binds
